Results published in patent publication EP1724347A2 (Yale University, dated 2006).
Where no end group is shown, it is not given here.

Key:
[1] = target: T1, GST-hDM2 (residues 1-188) (human, UniProt Q00987 1-188); experiment: competition with 10 nM p53AD-Flu for 400 nM GST-hDM2; fraction of p53AD-Flu bound at equilibrium
T1 construct: also called human oncoprotein double minute two; not shown: glutathione S-transferase (GST) fusion partner

[2] = target: Calmodulin (Sigma) (Homo sapiens (Human), UniProt P0DP23 2-149); experiment: fluorescence titration of the labeled peptide; buffer with 130 mM KCl, 1 mM CaCl2
[3] = target: Carbonic anhydrase II (Sigma); experiment: fluorescence titration of the labeled peptide, PBS
[4] = target: T2, Human recombinant Bcl-2 (1-205), soluble GST-fusion (human, UniProt P10415 1-205); experiment: change of fluorescence emission of the fluorescein-labeled peptide on titration with Bcl-2, 4°C, PBS
T2 construct: Bought from Santa Cruz Biotechnology; also called GST-Bcl-2; not shown: glutathione S-transferase (GST) fusion partner
T2 sequence (P10415 1-205): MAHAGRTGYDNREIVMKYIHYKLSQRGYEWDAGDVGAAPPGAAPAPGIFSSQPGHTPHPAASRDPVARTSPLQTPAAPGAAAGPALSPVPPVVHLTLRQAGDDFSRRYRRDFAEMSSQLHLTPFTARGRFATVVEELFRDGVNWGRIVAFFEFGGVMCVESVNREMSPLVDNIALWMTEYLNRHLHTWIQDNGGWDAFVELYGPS

T1 sequence (Q00987 1-188): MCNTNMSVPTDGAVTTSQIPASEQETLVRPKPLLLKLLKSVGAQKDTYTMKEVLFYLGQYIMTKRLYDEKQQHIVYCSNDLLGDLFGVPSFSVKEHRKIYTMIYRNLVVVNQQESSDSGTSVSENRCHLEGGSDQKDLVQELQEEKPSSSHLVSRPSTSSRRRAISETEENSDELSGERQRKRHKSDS

Binder	Ki [1] [µM]	Kd [2] [µM]	Kd [3] [µM]	Kd [4] [µM]
GPSQPTYPGDDAPVEDLIRFKFLLQWYLLAL (designed binder, also called p3559) [pZutshi, as competitor (not labeled)]	0.722	–	–	–
GQVGRQLAIIGDDINRYC(5‑iodoacetamidofluorescein)-NH2 (also called Bak BH3 peptide; Bak 72-94) [Bak peptide, fluorescein-labeled form with additional carboxy-terminal YC]	–	25	22	0.363
